From patent US20050182242A1, “Global analysis of protein activities using proteome chips” (priority 2001, published 2005) come the findings set out here.

One data set has as its system PI(3,4,5)P3 liposomes. In words: Yeast proteome chip probed with PI(3,4,5)P3 liposomes. To be noted: liposome binding signal on yeast proteome chip, Cy3-streptavidin detection. An excerpt:
(§1) To identify PI-binding proteins in yeast, liposomes were used as probes because the liposome provides the most relevant physiological condition to assay the interactors. Six types of liposomes were used. Each contains phosphatidylcholine (“PC”) with 1% (w/w) N-(biotinoyl)-1,2-dihexadecanoyl-sn-glycero-3-phosphoethanolamine, triethylammonium salt (biotin DHPE). The biotinylated lipid serves as a label that can be detected by Cy3-streptavidin (21). In addition to PC, the five other liposomes contain either 5% (w/w) PI(3)P, PI(4)P, PI(3,4)P2, PI(4,5)P2, or PI(3,4,5)P3 (FIG. 3A).
(§2) The protein-liposome interaction was assayed as follows. Appropriate amounts of each lipid in chloroform were mixed and dried under nitrogen. The lipid mixture was resuspended in TBS buffer by vortexing. The liposomes were created by sonication. Blocked proteome chips were washed three to five times in PBS buffer, and the extra liquid on the glass surface was removed by tapping the slides vertically on a KIMWIPE™. 200 μl of liposome solution was added to the proteome chip and immediately covered by a hydrophobic plastic cover slip (GRACE BIO-LAB™, USA). After trapped air bubbles were removed, the chip was incubated in a humidity chamber at RT for one hour. To remove the cover slip, the chip was immersed into large volume of PBS buffer (50 ml), so that the slip would float away. The chip was then moved to a second PBS bath (>50 ml) and washed 3×5 min with shaking at RT. After removing extra liquid on the surface of the chip, about 100 μl of Cy3 or Cy5 conjugated streptavidin (PIERCE™, USA; 1:2000 to 1:4000 dilution) was added to the surface and covered by a hydrophobic plastic cover slip (GRACE BIO-LABS™, USA). The chip was incubated for greater than 30 min in the dark at RT. The chip was then washed as described above. To completely remove the liquid on the chip, the chip was spun to dryness at 1500-2000 rpm for 5-10 min at RT.
(§3) • 1. S. Fields, Y. Kohara, D. J. Lockhart, Proc. Natl. Acad. Sci. 96, 8825 (1999); A. Goffeau et al., Science 274, 563 (1996). • 2 P. Ross-Macdonald et al., Nature 402, 413 (1999); J. L., DeRisi, V. R. Iyer, P. O. Brown, Science 278, 680 (1997); E. A. Winzeler et al., Science 285, 901 (1999). P. Uetz et al., Nature 403, 623 (2000); T. Ito et al., Proc. Natl. Acad. Sci. USA. 97, 1143 (2000) • 3 H. Zhu, M. Snyder, Curr. Opin. Chem. Biol. 5, 40 (2001). • 4 M. R. Martzen et al., Science 286, 1153 (1999). • 5 H. Zhu et al., Nat. Genet. 26, 283 (2000). • 6 G. MacBeath, S. L. Schreiber, Science 289, 1760 (2000). • 7 A. Caveman, J. Cell Sci. 113, 3543 (2000). • 8 P. Arenkov et al., Anal. Biochem 278, 123 (2000). • 9 D. A. Mitchell, T. K. Marshall, R. J. Deschenes, Yeast 9, 715 (1993). The expression vector pEGH was created by inserting an RGS-HisX6 epitope tag between the GST gene and the polycloning site of pEG(KG). The yeast ORFs were cloned using the strategy described previously (5), except every step was done in a 96-well format. Plasmid DNAs confirmed by DNA sequencing were reintroduced into both yeast (Y258) and E. coli (DH5a). […] 0.1 mM calcium was present in buffers in all subsequent steps. The chip was washed three times with PBS at RT. Cy3-conjugated streptavidin (Jackson IR, USA) (1:5000 dilution) was added to the chip and incubated for 30 min at RT. After extensive washing, the chip was spun dry and scanned using a microarray scanner; the data was subsequently acquired with the GENEPIX™ array densitometry software (Axon, USA). • 12 S. S. Hook, A. R. Means, Annu. Rev. Pharmacol. Toxicol.41, 471 (2001). • 13 M. S. Cyert, R. Kunisawa, D. Kaim, J. Thorner, Proc. Natl. Acad. Sci. USA 88, 7376 (1991). • 14 D. A. Stirling, K. A. Welch, M. J. Stark, EMBO J. 13, 4329 (1994). • 15 F. Bohl, Kruse, EMBO J. 19, 5514 (2000); E. Bertrand et al., Mol. Cell 2, 437 (1998). • 16 D. C. Winter, E. Y. Choe, R. Li, Proc. Nat. Acad Sci. USA 96, 7288 (1999). • 17 C.

Another data set concerns PI(3,4)P2 liposomes. The experiment in a line: Yeast proteome chip probed with PI(3,4)P2 liposomes. The note with it: liposome binding signal on yeast proteome chip, Cy3-streptavidin detection.
Excerpt: as §1, §2, §3

Another data set deals with PI(4)P liposomes. In words: Yeast proteome chip probed with PI(4)P liposomes. To be noted: liposome binding signal on yeast proteome chip, Cy3-streptavidin detection.
Excerpt: as §1, §2
as §3, with “Pharmacol. Toxicol.41, 471 (2001). • 13 M. S. Cyert, R. Kunisawa, D. Kaim, J. Thorner, Proc. Natl. Acad. Sci. USA 88, 7376 (1991). • 14 D. A. Stirling, K. A. Welch, M. J. Stark, EMBO J. 13, 4329 (1994). • 15 F. Bohl, Kruse, EMBO J. 19, 5514 (2000); E. Bertrand et al., Mol. Cell 2, 437 (1998). • 16 D. C. Winter, E. Y. Choe, R. Li, Proc. Nat. Acad Sci. USA 96, 7288 (1999). • 17 C.” left out

The next data set has as its system six different liposomes. The experiment in a line: Reverse membrane assay: proteins spotted on nitrocellulose probed with six liposomes. The class given is binding. The method, then:
B. A reverse assay was carried out to test for protein-lipid interactions. The proteins were prepared and spotted onto nitrocellulose filters in a dilution series and probed with the six different liposomes. As a control, the six liposomes were also added to the BSA-blocked membrane. After extensive washing, the bound liposomes were detected using an HRP-conjugated streptavidin and an ECL kit.
C. Linear correlation between the binding signals and the amounts of Rim15p in a membrane assay. When liposome-binding signals of Rim15p from the membrane assay (FIG. 4B) were plotted against the concentration gradient of the spotted Rim15p, the binding signals of PI(4)P, PI(3,4)P2, PI(3)P, and PI(4,5)P2 correlated linearly with the amounts of Rim15p.
Therefore, six proteins, i.e., Rim15p, Eno2p, Hxk1p, Sps1p, Yg1059wp, and Gcn2p, were further tested for phosphoinositol binding using two types of standard assays (Williamson, 2000, Nat. Struct Biol. 7(10):834-7). For Rim15p, Eno2p, and Hxk1p, PI(4,5)P2 liposomes were first adhered to a nitrocellulose membrane, which was then blocked by BSA; different amounts of the GST fusion proteins and a GST control were used to probe the membrane, and bound proteins were detected using anti-GST antibodies. […] We also carried out the reverse assay for four GST fusion proteins, Rim15p, Sps1p, Yg1059wp, and Gcn2p (Guerra et al., 2000, Biosci. Rep. 20: 41). Different amounts of these purified proteins were spotted onto nitrocellulose filters and probed with the six different liposomes (FIG. 5B). The bound liposomes were detected using a horseradish peroxidase (“HRP”)-conjugated streptavidin.

“RIM15: yeast protein kinase, regulator of glucose metabolism, GST-HisX6 fusion”: the “PI(3, 4, 5)P3” value with PI(3,4,5)P3 liposomes was found to be 1219.28. Moreover, in the data set with PI(3,4)P2 liposomes, the “PI(3, 4)P2” value came out at 4941.00. Also, in the data set with PI(4)P liposomes, the “PI(4)P” value is on record as 2349.00. Besides, the “liposome binding in reverse membrane assay” value with six different liposomes (HRP-conjugated streptavidin) was “bound strongest to PI(3)P and PI(4)P and PI(3,4)P2”. Moreover, the “affinity of PI(4)P relative to control PC” value with six different liposomes (membrane assay, signal vs amount of protein) is on record as “at least three-fold higher”.
